From patent US20080193973A1, “Bacillus Subtilis Strain and its Use in Preparing Pharmaceuticals for Treating Thrombosis” (CHENGDU DI'AO JIUHONG PHARMACEUTICAL, priority 2005, published 2008)
Marks after values point to notes of the source that are not given here.

How the values were obtained:
[1] = test system: carotid artery thrombosis in rats; assay: carotid artery thrombosis test in rats (direct current stimulation, thrombus formation time); assay type: in vivo, SD rats
Description: Experimental Apparatus: Experimental Intracorporeal Thrombosis Surveyor BT87-3, developed by the cardiovascular research department of Baotou Medical University of China.
The carotid artery of test rats were separated 1 hour after the last intragastric administration or 15 minutes after intravenous injection according to the method prescribed in existing literature. Being stimulated continually with direct current (2 mA) for 7 minutes, the injuries of endarterium of carotid artery formed thrombosis gradually in test rats. The experimental apparatus would give an automatic alarm and record the time of thrombus formation when the blood vessels were blocked.

[2] = weight and overt toxicity of test rats during 7 days of administration
Description: Experimental Animal: 84 male SD rats weighing 250 to 320 g, purchased from the Animal Center of Henan Medical University of China.
Eighty-four male SD rats were randomly assigned to seven experimental groups (12 rats each group) according to their body weight. The freeze-dried powder of nattokinase and positive drug aspirin were given to test groups and the control group was administered with 5% NaHCO3, by intragastric administration according to the dosage of 0.5 ml/100 g each day for 7 continuous days. The positive drug staphylokinase was given at the 7th day by intravenous injection.

mice = assay: acute toxicity test by intragastric administration in mice; assay type: in vivo
[3] = preliminary test of activity of nattokinase prepared by 5% NaHCO3 at room temperature; assay type: physicochemical; settings: prepared by 5% NaHCO3, room temperature for 4 days
Description: Basis of Preparation: It has been reported that the nattokinase-like drugs are stable at pH values from 6.0 to 12.0 and unstable when to the PH value is below 5.0. Generally, the pH values of digestive tract are ranged from 0.9 to 1.5 in stomach, 6.0 to 6.8 in small intestine and 6.5 to 7.5 in colon. Therefore, the direct intragastric administration of drug containing nattokinase prepared with common solution adjuvant is unstable and easy to breakdown.

[4] = enzyme (nattokinase) activity of fermentation broth or dried crude product; assay type: biochemical
Description: Although many kinds of fermentation techniques have been reported in existing literatures related to nattokinase from Bacillus subtilis, but the majority of the publicized strains have lower enzyme producing ability. On the other hand, other literatures describes some fermentation products from Bacillus subtilis that have higher enzyme producing ability, but it is difficult to evaluate the abilities of these publicized enzymes for the uncertainties of measuring conditions. The strain of Bacillus subtilis of the invention was fermented under the condition of temperature 30 to 40 degree C. and with the speed of 180 to 220 rpm for shaking bed, and the peak of enzyme production was obtained next day with enzyme activity of 1600 IU/ml and could be increased to 1697 IU/ml under optimized conditions. The enzyme activity of dried crude product could reach to 5000-10000 IU/g in solid fermentation of 10 kg supplies. […] Therefore, it has a very high industrial application value. So we think that the strain of Bacillus subtilis (No. Diao 1502) is a newly developed, different one in comparison with any Bacillus subtilis producing nattokinase reported in existing literatures.

[5] = temperature below 56 degree C. for 30 10 minutes; cited from earlier work
[6] = in vivo, po; cited from earlier work

CC(=O)Oc1ccccc1C(=O)O [Aspirin]
Thrombus formation time, mean value ([1]; aspirin 40 mg/kg/day intragastric for 7 days, 1 hour after last administration): 1379** second
Weight of test rats after 7 days of administration ([2]; aspirin 40 mg/kg/day intragastric): 316 ± 20
Weight of test rats before administration ([2]; aspirin group (40 mg/kg/day intragastric)): 296 ± 15

B1: nattokinase of the invention: fibrinolysin produced by Bacillus subtilis Diao 1502; crude drug, luteous water-soluble powder, batch No. 20040617 (protein, UniProt P35835 107-381, looked up)
Subtilisin NAT: AQSVPYGISQIKAPALHSQGYTGSNVKVAVIDSGIDSSHPDLNVRGGASFVPSETNPYQDGSSHGTHVAGTIAALNNSIGVLGVAPSASLYAVKVLDSTGSGQYSWIINGIEWAISNNMDVINMSLGGPTGSTALKTVVDKAVSSGIVVAAAAGNEGSSGSTSTVGYPAKYPSTIAVGAVNSSNQRASFSSVGSELDVMAPGVSIQSTLPGGTYGAYNGTSMATPHVAGAAALILSKHPTWTNAQVRDRLESTATYLGNSFYYGKGLINVQAAAQ
LD50 (mice): higher than 6.0 g/kg
Carotid artery thrombosis time compared with positive Aspirin (in words) ([1]; groups of different dosages): no significant difference
Thrombus formation time, mean value ([1]; high dosage 100 mg/kg in 5% NaHCO3, intragastric for 7 days): 1309** second
Effect on carotid artery thrombosis time compared with negative control (in words) ([1]; listed as NK prepared by 5% NaHCO3): apparent antithrombotic effects
Effect on carotid artery thrombosis time compared with negative control (in words) ([1]; listed as freeze dried powder of nattokinase): prolonged significantly
Thrombus formation time, mean value ([1]; low dosage 4 mg/kg in 5% NaHCO3, intragastric for 7 days): 1237* second
Thrombus formation time, mean value ([1]; middle dosage 20 mg/kg in 5% NaHCO3, intragastric for 7 days): 1287* second
Activity after storage (in words) [3]: no decrease in activity
Enzyme activity of fermentation broth ([4]; after optimization of fermentation condition): 1697 IU/ml
Enzyme activity of fermentation broth ([4]; liquid fermentation, before optimization): 1600 IU/ml
Enzyme activity of dried crude product ([4]; solid fermentation of 10 kg class, after drying): 5000-10000 IU/g
Activity after incubation (in words) [5]: basically unchanged
Toxicity in rats (in words) ([2]; 7-day's intragastric administration, prepared with 5% NaHCO3): no apparent toxicity

B2: Nattokinase (NK): serine protease extracted from the traditional Japanese food Natto, 275 amino acids (background literature) (protein, UniProt P35835 107-381, looked up)
Subtilisin NAT: AQSVPYGISQIKAPALHSQGYTGSNVKVAVIDSGIDSSHPDLNVRGGASFVPSETNPYQDGSSHGTHVAGTIAALNNSIGVLGVAPSASLYAVKVLDSTGSGQYSWIINGIEWAISNNMDVINMSLGGPTGSTALKTVVDKAVSSGIVVAAAAGNEGSSGSTSTVGYPAKYPSTIAVGAVNSSNQRASFSSVGSELDVMAPGVSIQSTLPGGTYGAYNGTSMATPHVAGAAALILSKHPTWTNAQVRDRLESTATYLGNSFYYGKGLINVQAAAQ
Time of peak value of fibrinolytic activity after taking the medicine [6]: 4 h
Time till which certain activity was maintained [6]: 8 h
